# Target: GST-tagged PAK1-PBD protein (Cytoskeleton Inc.), Rac/Cdc42 (p21) binding domain of human p21 activated kinase 1, residues 67-150 (human) (UniProt Q13153)
# Assay: fluorescence anisotropy in solution
# GST-tagged PAK1-PBD protein (Cytoskeleton Inc.), Rac/Cdc42 (p21) binding domain of human p21 activated kinase 1, residues 67-150 (human), sequence (Q13153 67-150 limits assumed): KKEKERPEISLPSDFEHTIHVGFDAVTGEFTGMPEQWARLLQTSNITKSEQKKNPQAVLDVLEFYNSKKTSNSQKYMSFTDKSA
substance,measurement,value
"LUMP-Cdc42, fusion protein of LUMP with the constitutively active GTPase Cdc42 (Q61L) connected by a ten amino acid flexible linker (…) (from UniProt Q06877 1-186; P60953 1-191)",anisotropy (before addition),0.19
same,anisotropy (bound),0.22
same,increase in anisotropy on binding,14%

# From patent US20160146827A1
